Measurements: patent US20210238276A1 (INTEGRAL MOLECULAR, published 2021)
Numbering of substitutions follows the chain as printed. One block for each molecule: values may come before it.

Columns and labels:
Experiment in all cases: flow cytometry, alanine-scan library in HEK-293T
hsGLUT4 V306A = biological target: T1, hsGLUT4 V306A (human, UniProt P14672 1-509)
T1 sequence: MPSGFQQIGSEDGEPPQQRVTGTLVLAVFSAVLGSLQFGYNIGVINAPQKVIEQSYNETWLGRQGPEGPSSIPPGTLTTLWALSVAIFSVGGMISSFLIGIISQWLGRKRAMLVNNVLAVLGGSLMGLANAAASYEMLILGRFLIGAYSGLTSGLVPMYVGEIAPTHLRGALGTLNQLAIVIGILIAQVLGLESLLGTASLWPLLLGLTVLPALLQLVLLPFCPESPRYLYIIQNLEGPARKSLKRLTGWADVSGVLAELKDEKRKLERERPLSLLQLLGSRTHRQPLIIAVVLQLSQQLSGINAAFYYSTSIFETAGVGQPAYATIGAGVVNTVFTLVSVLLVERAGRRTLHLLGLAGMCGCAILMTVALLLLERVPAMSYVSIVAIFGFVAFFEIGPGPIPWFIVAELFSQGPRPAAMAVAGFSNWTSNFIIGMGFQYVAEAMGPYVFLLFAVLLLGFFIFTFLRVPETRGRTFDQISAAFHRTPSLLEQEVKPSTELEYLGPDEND
In short: (§1)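 HEK-293T cells expressing individual GLUT4 alanine mutants were stained 48 h post-transfection with anti-GLUT4 scFv MAbs (2 μg/ml), then biotinylated secondary and streptavidin-PerCP, and read by high-throughput flow cytometry. Where used, cytochalasin B (10 uM final) was given for 30 min before and during primary antibody staining.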

hsGLUT4 G348A = biological target: T2, hsGLUT4 G348A (human, UniProt P14672 1-509)
T2 sequence: T1 sequence with A306V, G348A
In short: as §1

hsGLUT4 L61A = biological target: T3, hsGLUT4 L61A (human, UniProt P14672 1-509)
T3 sequence: T1 sequence with L61A, A306V
In short: as §1

% of binding to wild type GLUT4 (hsGLUT4 V306A): 74%
% of binding to wild type GLUT4 (hsGLUT4 G348A): 109%
% of binding to wild type GLUT4 (hsGLUT4 L61A): 90%
Molecule: 1F8 (antibody)

B1: AB111 (Fc fusion)
scFv: ALTQPSSVSANPGETVKITCSGSGSWYGWFQQKSPGSAPVTVIYSNDKRPSDIPSRFSGSKSGSTSTLTITGVQVEDEAVYYCGNWDIFGAGTTLTVLGQSSRSSGGGGSSGGGGSAVTLDESGGGLQTPGGALSLVCKASGFTFSSHGMGWVRQAPGKGLEWVASISTGRYTFYAPAVKGRATISRDNGQSTVRLQLNNLRAEDTATYYCTKCAGLNGCGGGEIDAWGHGTEVIVSS
notes: Bivalent scFv-Fc; also called MAb AB111; not shown: Fc fragment of human IgG1, cloned in frame with the scFv
% of binding to wild type GLUT4 (hsGLUT4 V306A): 171%
% of binding to wild type GLUT4 (hsGLUT4 G348A): 161%
% of binding to wild type GLUT4 (hsGLUT4 L61A): 80%

B2: AB108 (Fc fusion)
scFv: ALTQPSSVSANLGGTVKITCSGSSGSYGWYQQKAPGSAPVTLIYRNDKRPSDIPSRFSGSESGSTGTLTITGVQAEDEAVYFCGGYDSSAGYAAFGAGTTLTVLGQSSRSSGGGGSSGGGGSAVTLDESGGGLQTPGGALSLVCKASGFTFSSHGMGWVRQAPGKGLEWVGSISTGRYTFYAPAVKGRATISRDNGQSTLRLQLNNLRAEDTGTYYCTKCAGLNGCGGGEIDAWGHGTEVIVSS
notes: Bivalent scFv-Fc; also called MAb AB108; not shown: Fc fragment of human IgG1, cloned in frame with the scFv
% of binding to wild type GLUT4 (hsGLUT4 V306A): 83%
% of binding to wild type GLUT4 (hsGLUT4 G348A): 94%
% of binding to wild type GLUT4 (hsGLUT4 L61A): 13%

% of binding to wild type GLUT4 (hsGLUT4 V306A): 91%
% of binding to wild type GLUT4 (hsGLUT4 G348A): 101%
% of binding to wild type GLUT4 (hsGLUT4 L61A): 115%
B3: AB101 (scFv)
scFv: ALTQPSSVSANPGETVKITCSGSSNSYGWYQQKSPGSAPVTVIYYNDKRPSDIPSRFSGSKSDSTHTLTITGVRAEDEAVYFCGSYDSTYVGIFGAGTTLTVLGQSSRSSGGGGSSGGGGSAVTLDESGGGLQTPGGTLSLVCKASGFTFSSNAMGWVRQAPGKGLEWVAGISSDGRYTKYGSAVKGRATISRDNGQSTVRLQLNNLRAEDTGTYFCAKAFGNNYRRIYAGQIDAWGHGTEVIVSS
notes: Chicken-derived clone used as a control; the four lead clones were tested as scFv-human IgG1 Fc; also called MAb AB101
